Paper PMC4728560 (Scientific Reports, 2016)
“Also recorded” adds a separate entry of the source.

Target: T1, Bcl-xL (Homo sapiens, UniProt Q07817, DEL27-82)
T1 construct: one containing the fragment 1-26, and the other the fragment 81-209; 6His (N, cleaved yes); made in house; host or cells: Escherichia coli BL21 (DE3) pRARE2
Experiment: Heterocomplex formation with Bcl-xL (native MS, SEC-MALS, gel filtration)
Format: binding
Settings: native MS: Bcl-xL(Δ27-81ΔCT), equimolar 100 μM, 30 °C, checked at 5 μM (for TCTP-R21A)
Procedure: When not specified, proteins tested for binding experiments were mixed at 100 μM, dialyzed against 10 mM CHES pH 9, 50 mM NaCl, 1 mM DTT or TCEP, depending on the analysis, and heated overnight at 30 °C.
For binding experiments, 100 to 200PL of protein mixture were loaded on a size exclusion chromatography (S200, GE Healthcare) column, while elution profiles were measured by UV absorption at 280 nm.
SEC-MALS experiments were performed on a multi-angle light scattering detector (miniDAWN TREOS, Wyatt Technologies) coupled in-line with SEC and an interferometric refractometer (Optilab T-rEX, Wyatt Technologies). See Supplementary Information for full details.
Prior to any mass spectrometry experiment, protein buffer was exchanged twice against a 50 mM ammonium acetate (NH4Ac) solution at pH 9.0 using microcentrifuge gel filtration columns (Zeba 0.5 ml, Thermo Scientific, Rockford, IL). Protein concentration was determined spectrophotometrically. […]
Supplementary Table 1. Measured molecular weights in denaturing conditions Sample Theoretical molecular Measured molecular Associated mass (Da) mass (Da) species […]
Gel filtration. For binding experiments, 100 to 200PL of protein mixture were loaded on a size exclusion chromatography (S200, GE Healthcare) column, while elution profiles were measured by UV absorption at 280nm. […]

T1 sequence (Q07817 with tags, fused parts or gaps DEL27-82): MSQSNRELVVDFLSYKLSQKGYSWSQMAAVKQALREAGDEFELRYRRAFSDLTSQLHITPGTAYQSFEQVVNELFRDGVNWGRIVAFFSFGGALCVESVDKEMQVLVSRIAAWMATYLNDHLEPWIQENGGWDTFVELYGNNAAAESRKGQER

TCTP: Translationally Controlled Tumor Protein (TCTP/tpt1), recombinant full-length
complex formation with Bcl-xL: forms a heterotetramer with Bcl-xL; also recorded: forms heterotetrameric complexes with Bcl-xL
